Data: patent publication US12466854B2, “Peptide useful for the transport of molecules through cell barriers” (UNIVERSITÉ GRENOBLE ALPES, priority 2022, dated 2025)

System: differentiated cellular BBB model
Assay: Study B: permeability of the nanobodies and conjugates through differentiated cellular BBB model (ELISA)
Type: in vitro ADME, rats
Conditions: samples at 60 and 120 min, FIG. 7
Method: Cerebral microvessel endothelial cells prepared from 5-week-old male rats were seeded on microporous filters in order to: • evaluate the toxicity of the nanobodies and conjugates during their transfer by kinetic measurement of the sucrose transfer. • evaluate the permeability of the nanobodies and conjugates in the blood/brain direction. Experimental Conditions: • The endothelial cells were seeded on 28 Transwell Polycarbonate filters (porosity 0.4 μm and diameter 12 mm), and cultured in differentiation medium. • The measurement of toxicity (study A) or permeability (study B) of the nanobodies and conjugates was carried out in HBSS Ca/Mg medium supplemented with 0.1% BSA.
For study B, the medium collected at 60 min basolaterally was replaced by the same volume of fresh medium.
The samples collected at 60 and 120 min were analyzed by ELISA test to evaluate the quantity of nanobodies and conjugates which passed during study B. To be able to analyze the different samples by ELISA, it was necessary to first purify them to remove BSA limiting adhesion to 96-well plates of ELISA test. Thanks to the polyhistidine label present on the 3 nanobodies and conjugates, purifications on a 96-well plate coated with Nickel-NTA were carried out. […]
An absorbance reading was carried out at 450 nm after stopping the colorimetric reaction using a 1 N HCl solution. […]

B1: 2C5: anti-Tau nanobody (VHH, SEQ ID NO: 3) detecting pathological oligomeric forms of Tau protein (protein)
VHH: QVQLVQSGGGLVQAGGSLRLSCAASGRTFSSDTLAWFRQAPGKEREFVASISPSGGVTYYEDSVKGRFTISRDNSKNTVLLQMNSLTPEDTAVYYCNRDPKYGNTRYWGQGTQVTVSSAAA
passage through the BBB model (blood/brain direction): not passing this model
